Source: patent publication US20250257130A1 (NONA BIOSCIENCES SUZHOU, published 2025)
One block for each binder: values may come before it.

Key:
[1] = target: T1, human ROR1 on cells (HEK293T-hROR1, PANC-1, A549) (human, UniProt Q01973 30-937); experiment: flow cytometry on PANC-1 cells, MFI (FITC-A Median)
T1 construct: whole, on cells; one molecule for the three cell lines; also called huROR1; cell surface ROR1
Description: (§1) Binding of recombinant anti-ROR1 antibodies to human or cynomolgus ROR1-overexpressing cells was tested by flow cytometry. In this example, ROR1-expressing cell lines are HEK293T cell lines that had been transfected to express human ROR1 on the surface (HEK293T-hu ROR1, KYINNO BIOTECHNOLOGY CO., LTD, Catalog #KC-1018), CHO-K1 cell lines that had been transfected to express cynomolgus ROR1 (CHOK1-cyno ROR1), PANC-1 (ATCC, catalog: CRL-1469) or A549 cell lines (Shanghai Institute of Biochemistry and Cell Biology, Chinese Academy of Sciences).
(§2) In brief, anti-ROR1 antibodies were serially diluted in staining buffer (PBS containing 2% FBS). Antibody solution was incubated with 1×10⁵ cells at 4° C. for 1 hour. […] After 1-hour incubation at 4° C., cells were washed twice with staining buffer and subjected to flow cytometry. PR000374 (Bench marker 1) and non-relevant IgG isotype control (Crownbio) were used as positive and negative controls, respectively.

[2] = target: T2, Human ROR1-ECD-his (Acro Biosystems RO1-H522y) (human, UniProt Q01973 30-406); experiment: BLI in-tandem competition; competitor: PR303147
T2 construct: extracellular domain; bought protein; also called hROR1-ECD-his; hu-ROR1-ECD-his
T2 sequence (Q01973 30-406): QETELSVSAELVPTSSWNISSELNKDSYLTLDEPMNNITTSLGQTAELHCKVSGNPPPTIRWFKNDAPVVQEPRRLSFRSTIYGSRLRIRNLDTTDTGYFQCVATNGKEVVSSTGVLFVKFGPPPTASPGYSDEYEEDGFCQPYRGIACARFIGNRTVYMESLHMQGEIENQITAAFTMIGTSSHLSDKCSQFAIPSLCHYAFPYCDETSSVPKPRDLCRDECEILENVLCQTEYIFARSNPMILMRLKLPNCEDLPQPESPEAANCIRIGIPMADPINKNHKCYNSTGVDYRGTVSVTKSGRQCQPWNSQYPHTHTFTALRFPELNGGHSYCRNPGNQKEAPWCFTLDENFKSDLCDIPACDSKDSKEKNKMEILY
From the text: (§3) To determine if anti-ROR1 antibodies bind to human ROR1 on different or approximate binding epitopes, the ForteBio Octet® RED96e platform was used to perform epitope competition experiments on the anti-ROR1 antibodies. Human ROR1 protein (Acrobiosystems, #RO1-H522y) was biotinylated and then captured onto SA biosensors (ForteBio, #18-5020) to reach loading level of 0.3-0.4 nm. The in-tandem competition assay format was applied and it contains two association steps. Firstly, the antigen-loaded biosensors bind to each antibody (a.k.a, First antibody, 1st Ab) with a saturating concentration of 200 nM for 180 seconds to reach equilibrium and then secondly bind to the competing antibodies (a.k.a, Second antibody, 2nd Ab) of 200 nM for 180 seconds. The second binding signals were recorded as the 100% signal of each antibody when the first antibodies were replaced by kinetics buffer. All the binding data were analyzed using ForteBio Data Analysis 11.0 software. The inhibition rate is calculated by the following formula: […]

[3] = target: T2, Human ROR1-ECD-his (Acro Biosystems …); experiment: BLI in-tandem, row = 1st Ab; competitor (2nd Ab): PR007424
From the text: as §3

[4] = target: T1, human ROR1 on cells (HEK293T-hROR1, …); experiment: flow cytometry, A549 cells
Description: as §2

[5] = target: T3, cynomolgus ROR1 on CHO-K1-cynoROR1 cells (cynomolgus monkey, UniProt A0A2K5WTX7 30-937); experiment: flow cytometry on CHOK1-cynoROR1 cells, MFI (Mean) [bottom panel, letter not given]
T3 construct: whole, on cells
Description: as §1, §2

[6] = target: T2, Human ROR1-ECD-his (Acro Biosystems …); experiment: BLI in-tandem competition; competitor: PR303189
From the text: as §3

[7] = target: T3, cynomolgus ROR1 on CHO-K1-cynoROR1 cells; experiment: flow cytometry on CHOK1-cynoROR1 cells, MFI (APC-A Median) [top panel]
Description: as §1, §2

[8] = target: T2, Human ROR1-ECD-his (Acro Biosystems …); experiment: BLI in-tandem, row = 1st Ab; competitor (2nd Ab): PR000374
From the text: as §3

[9] = target: T2, Human ROR1-ECD-his (Acro Biosystems …); experiment: BLI in-tandem, row = 1st Ab; competitor (2nd Ab): PR007417
From the text: as §3

[10] = target: T1, human ROR1 on cells (HEK293T-hROR1, …); experiment: flow cytometry, PANC-1 cells
Description: as §2

[11] = target: T3, cynomolgus ROR1 on CHO-K1-cynoROR1 cells; experiment: flow cytometry on CHOK1-cynoROR1 cells, MFI (APC-A Median) [middle panel, letter not given]
Description: as §1, §2

[12] = target: T2, Human ROR1-ECD-his (Acro Biosystems …); experiment: BLI in-tandem competition; competitor: PR303125
From the text: as §3

[13] = target: T1, human ROR1 on cells (HEK293T-hROR1, …); experiment: flow cytometry on A549 cells, MFI (Mean)
Description: as §1, §2

[14] = target: T1, human ROR1 on cells (HEK293T-hROR1, …); experiment: flow cytometry on PANC-1 cells, MFI (APC-A Median)
Description: as §1, §2

[15] = target: T2, Human ROR1-ECD-his (Acro Biosystems …); experiment: BLI, ROR1-His on HIS1K sensor, antibody in solution
Outline: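 His-tagged ROR1 (20 nM) captured on HIS1K biosensors; serially diluted antibodies in kinetics buffer as analyte. Association and dissociation rate constants measured by Octet biolayer interferometry, sensors regenerated with 10 mM glycine-HCl pH 1.5 between cycles.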

T1 sequence (Q01973 30-937): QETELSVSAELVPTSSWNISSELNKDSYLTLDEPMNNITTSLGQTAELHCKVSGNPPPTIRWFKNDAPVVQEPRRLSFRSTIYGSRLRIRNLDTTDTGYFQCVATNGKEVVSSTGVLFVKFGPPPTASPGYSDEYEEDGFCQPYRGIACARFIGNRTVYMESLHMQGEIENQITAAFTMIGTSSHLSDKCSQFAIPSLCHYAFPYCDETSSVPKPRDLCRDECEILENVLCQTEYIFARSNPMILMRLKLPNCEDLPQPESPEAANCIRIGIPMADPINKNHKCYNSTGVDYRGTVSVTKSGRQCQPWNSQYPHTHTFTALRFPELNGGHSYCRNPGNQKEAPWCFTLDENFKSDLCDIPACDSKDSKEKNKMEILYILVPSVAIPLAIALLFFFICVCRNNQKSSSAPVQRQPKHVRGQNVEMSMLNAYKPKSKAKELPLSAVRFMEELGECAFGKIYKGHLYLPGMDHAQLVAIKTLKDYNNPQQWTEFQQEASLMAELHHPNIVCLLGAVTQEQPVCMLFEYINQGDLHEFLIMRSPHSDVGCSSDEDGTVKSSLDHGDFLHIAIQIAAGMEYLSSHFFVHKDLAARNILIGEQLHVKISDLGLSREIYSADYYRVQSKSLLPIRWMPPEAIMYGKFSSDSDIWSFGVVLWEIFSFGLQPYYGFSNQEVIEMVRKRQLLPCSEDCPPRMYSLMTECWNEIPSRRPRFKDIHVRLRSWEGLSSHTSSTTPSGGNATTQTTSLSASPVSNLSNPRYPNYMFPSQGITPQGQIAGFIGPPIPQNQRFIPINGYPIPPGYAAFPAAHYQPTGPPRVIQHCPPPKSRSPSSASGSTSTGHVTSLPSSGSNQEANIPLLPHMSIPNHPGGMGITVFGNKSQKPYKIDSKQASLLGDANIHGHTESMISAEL

- EC50 (read off the curve) [1]: ~8 nM
- Inhibition (%) [2]: -72%
- Inhibition (%) [3]: -8.53%
- EC50 [4]: 0.61 µg/mL
- MAX(MFI) [4]: 695000 MFI
- EC50 (read off the curve) [5]: ~0.3 µg/mL
- Inhibition (%) [6]: -52%
- EC50 (read off the curve) [7]: ~5 nM
- Inhibition (%) [8]: 111%
- Inhibition (%) [9]: -10.5%
- EC50 [10]: 0.905 µg/mL
- MAX(MFI) [10]: 442000 MFI
- EC50 (read off the curve) [11]: ~4 nM
- Inhibition (%) [12]: -45%
- EC50 (read off the curve) [13]: ~0.6 µg/mL
- EC50 (read off the curve) [14]: ~5 nM
B1: PR000374 (antibody, human IgG1, kappa, V domains shown)
VH: EVQLVESGGGLVQPGRSLRLSCTASGSDINDYPITWVRQAPGQGLEWIGFINSGGSTWYASWVKGRFTISRDDSKSIAYLQMNSLKTEDTAVYYCARGYSTYYRDFNIWGQGTLVTVSS
VL: DIQMTQSPSSLSASVGDRVTINCQASQSIDSNLAWFQQKPGQPPKLLIYRASNLASGVPDRFSGSGSGTDFTLTISSLEAEDVATYYCLGGVGAVSYRTSFGGGTKVEIKR
notes: positive control; also called Bench marker 1

- Kd [15]: 0.0395 nM
- koff [15]: 0.000115 s⁻¹
- kon [15]: 2.9e+06 M⁻¹ s⁻¹
- Inhibition (%) [2]: -60%
- EC50 [4]: 0.01 µg/mL
- MAX(MFI) [4]: 650000 MFI
- EC50 (read off the curve) [5]: ~0.03 µg/mL
- Inhibition (%) [6]: -99%
- MAX(MFI) [10]: 364000 MFI
- Inhibition (%) [12]: 80%
B2: PR303191 (antibody, human IgG1, V domains shown)
VH: EVQLLESGGGLVQPGGSLRLSCAASGFIFGSYAMSWVRQAPGKGLEWVSGISGTGGNTYYADSVKGRFTISRDNSKNTLYLQMNSLRAEDTAVYFCERGITIHGVVIIPPDYRGQGTLVTVSS
notes: HCAb (heavy chain-only, human IgG1 Fc), no light chain

- Kd [15]: < 0.001 nM
- koff [15]: < 1e-07 s⁻¹
- kon [15]: 165000 M⁻¹ s⁻¹
- Inhibition (%) [2]: -88%
- EC50 [4]: 0.16 µg/mL
- MAX(MFI) [4]: 668000 MFI
- EC50 (read off the curve) [5]: ~0.2 µg/mL
- Inhibition (%) [6]: -24%
- EC50 [10]: 0.463 µg/mL
- MAX(MFI) [10]: 883000 MFI
- Inhibition (%) [12]: 104%
- EC50 (read off the curve) [13]: ~0.2 µg/mL
B3: PR303125 (antibody, human IgG1, V domains shown)
VH: EVQLLESGGGLVQPGGSLRLSCAASGFTFSSHAMSWVRQAPGKGLEWVSAISGSGDSTHYAASVKGRFTISRDNSKNTLYLQMNSLRAEDTAVYYCETLLRFLESLGNDGFKIWGQGTMVTVSS
notes: as for B2
